Columns and labels:
[1] = system: apo-CaBP1; assay: ITC and HSQC of NSCaTE binding to apo-CaBP1; parameters: species or system human; conditions: ITC and NMR, compared to Ca^2+-CaBP1
[2] = biological target: N-lobe of calmodulin (residues 1-77) (UniProt P0DP23 2-78); assay: other fluorescence titration
[3] = biological target: C-lobe of calmodulin (residues 78-148) (UniProt P0DP23 79-149); assay: other fluorescence titration

binding to apo-CaBP1 [1] | Ka [2] [M⁻¹] | Ka [3] [M⁻¹] | Molecule
extremely weak |  |  | long NSCaTE peptide: biosynthetically produced N-terminal region of Cav1.2 (residues 1–68), expressed in E. coli
 | 1.39e+06 | 232000 | long NSCaTE peptide, Cav1.2 N-terminal cytoplasmic region residues 1-68 (domain or fragment) MVNENTRMYIPEENHQGSNYGSPRPAHANMNANAAAGLAPEHIPTPGAALSWQAAIDAARQAKLMGSA

From article PMC3324987 (Frontiers in Molecular Neuroscience, 2012)
